The source of these data is article PMC6643279 (Biochemistry, 2018).

Holding throughout (assay): purified protein
Series [1] relates to CC(=O)OCC(COP(=O)(O)O)OC(C)=O. To be noted: pH 8.0; 30.0 °C.
Another series has as its system CC(=O)Oc1ccc2ccccc2c1. To be noted: pH 8.0; 30.0 °C.
Another series concerns CC(=O)Oc1c[nH]c2ccccc12. As to conditions: pH 8.3; 30.0 °C.

Broadly, the Km is the concentration of substrate that gives half-maximal velocity. Usually kcat/Km stands for the second-order rate constant that governs catalysis at low substrate concentration. Regarding “phosphotriesterase homology protein (PHP) (Escherichia coli K-12)”, the Km in series [1] worked out at 6000 ± 500 µM; in the series on CC(=O)Oc1ccc2ccccc2c1, 1800 ± 200 µM; with CC(=O)Oc1c[nH]c2ccccc12, 1800 ± 200 µM. Further, the kcat/Km was found to be 4600 ± 650 M⁻¹ s⁻¹ in series [1], 1400 ± 200 M⁻¹ s⁻¹ with CC(=O)Oc1ccc2ccccc2c1 and 180 ± 20 M⁻¹ s⁻¹ with CC(=O)Oc1c[nH]c2ccccc12.
